# Data as given in patent publication US20110243972A1 (Johns Hopkins, published 2011).
# Columns and labels:
# [1] = target: T1, HLA-A3 on T2-A3 cells (HLA-A*0301) (human); test: T2-A3 stabilisation assay, flow cytometry with GAPA3
# T1 construct: Detected with the anti-HLA-A3 mAb GAPA3
# Source text: (§1) T2 cells were pulsed with 225 micrograms of peptide per ml overnight at room temperature before analysis by flow cytometry. T2 cells expressing HLA-A2 (A) or HLA-A24 (C) were stained with an unlabeled mouse anti-HLA class I molecule monoclonal antibody W6/32 and a goat-anti-mouse FITC-labeled IgG2a secondary antibody. T2 cells genetically modified to express A3 (B) were stained with an unlabeled mouse anti-human HLA-A3 specific monoclonal antibody GAPA3 and a FITC-labeled IgG2a secondary antibody.
# (§2) Materials and Methods. Peptide/MHC binding Assays. T2 cells expressing the HLA molecule of interest were resuspended in AimV serum free media (Gibco, Grand Island, N.Y.) to a concentration of 1×10⁶ cells/ml and pulsed with 3 μg/ml beta-2 microglobulin (β₂-M) (Sigma, St. Louis, Mo.) plus peptide at 0-225 μg/ml of peptide at room temperature overnight. The cells were washed and resuspended at 2×10⁵ cells/ml. The level of stabilized MHC on the cell surface of the T2 and T2-A24 cells were analyzed by direct staining of cell samples with unlabeled anti-class I mAb W6/32 and a FITC-labeled goat-anti-mouse IgG2a secondary antibody.
# [2] = target: T2, HLA-A2 on T2 cells (HLA-A*0201) (human); test: T2 stabilisation assay, flow cytometry with W6/32
# T2 construct: Class I molecule on the T2 cell surface, stabilised by peptide; Detected with mAb W6/32; also called T2-A2
# Source text: as §1, §2
binder,measurement,setting,value
EIDESLIFY [Mesothelin A1 (309-317) peptide (EIDESLIFY)],binding result,[1],no binding (tested: 225 micrograms of peptide per ml)
same,binding result,[2],no binding (tested: 225 micrograms of peptide per ml)
